The target in the first assay is T1, PKC-zeta (Homo sapiens, UniProt Q05513).
T1 construct: purchased Calbiochem
T1 sequence (Q05513 1-592): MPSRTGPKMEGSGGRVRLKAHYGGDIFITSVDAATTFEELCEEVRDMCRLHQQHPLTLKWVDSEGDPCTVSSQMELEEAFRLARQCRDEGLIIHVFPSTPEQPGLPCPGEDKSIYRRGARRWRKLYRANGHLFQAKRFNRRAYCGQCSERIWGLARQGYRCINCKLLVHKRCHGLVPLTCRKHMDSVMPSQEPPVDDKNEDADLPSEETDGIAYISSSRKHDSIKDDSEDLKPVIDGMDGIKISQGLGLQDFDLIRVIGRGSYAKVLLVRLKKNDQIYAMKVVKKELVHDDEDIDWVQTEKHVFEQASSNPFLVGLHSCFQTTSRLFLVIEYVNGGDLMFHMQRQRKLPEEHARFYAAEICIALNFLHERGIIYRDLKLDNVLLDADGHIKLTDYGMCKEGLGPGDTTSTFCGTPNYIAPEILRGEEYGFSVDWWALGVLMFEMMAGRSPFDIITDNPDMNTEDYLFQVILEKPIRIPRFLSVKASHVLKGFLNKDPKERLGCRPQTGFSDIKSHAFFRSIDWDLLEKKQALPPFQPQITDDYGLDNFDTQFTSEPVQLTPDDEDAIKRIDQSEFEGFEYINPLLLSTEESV
Kind of assay: In vitro kinase assay: peptide phosphorylation by PKC-zeta. The settings on record: normalized to best substrate. The class given is biochemical.
Turning to 81 (KRERKTSSKSSVRKRR) [compound 81], the PKC-zeta phosphorylation was 10%. For the substance 87 (RQGKRKTSIKRDTVNPL) [compound 87], the PKC-zeta phosphorylation was 3%. Regarding 88 (KKPFKLSGLSFKRNRKE) [compound 88], the PKC-zeta phosphorylation worked out at 4%. Still for that read-out and setting: the result for 91 (VHYTSKDTLRKRHYWR) [compound 91] reads 12%; that for 97 (KKRSSKKEASMKKVVRP) [compound 97], 1%; that for 98 (AGPLRKSSLKKGGRL) [compound 98], 4%.

The assay is the same for the next values; noted with them: peptide concentration 1 uM.
On to “148 (RELEQLKAEYLERRASRRRA) [compound 148]”, for which the “phosphorylation by PKC zeta” value is given as 20. Turning to 149 (RVVQSVKHTKRKSSTVMK) [compound 149], the “phosphorylation by PKC zeta” value was found to be 3.

With “150 (VDPFYEMLAARKKRISVKKK) [compound 150]”, the “phosphorylation by PKC zeta” value stood at 3. Still for that read-out and setting: next, “151 (PQNSLKASNRKKKRTSFKRK) [compound 151]”: 15; “152 (DLIEGRKGAQIVKRASLKRG) [compound 152]”: 4.

In the case of “153 (TYLLPDKSRQGKRKTSIKRD) [compound 153]”, the “phosphorylation by PKC zeta” value is 6.

The assay is the same for the next values; noted with them: peptide concentration 10 uM.
On to “148 (RELEQLKAEYLERRASRRRA) [compound 148]”, for which the “phosphorylation by PKC zeta” value turned out to be 20.

As to 149 (RVVQSVKHTKRKSSTVMK) [compound 149], the “phosphorylation by PKC zeta” value was determined as 5. Consider “150 (VDPFYEMLAARKKRISVKKK) [compound 150]”, for which the “phosphorylation by PKC zeta” value was 6. With “151 (PQNSLKASNRKKKRTSFKRK) [compound 151]”, the “phosphorylation by PKC zeta” value was determined as 28. As to “152 (DLIEGRKGAQIVKRASLKRG) [compound 152]”, the “phosphorylation by PKC zeta” value is listed as 9. As to “153 (TYLLPDKSRQGKRKTSIKRD) [compound 153]”, the “phosphorylation by PKC zeta” value was found to be 13.

The record behind these values is patent US20050064507A1, “Determining kinase specificity” (priority 2003, published 2005).
